From publication PMC9561612

Molecular target: CXCR4 receptor (human (endogenous in MDA-MB-231)) (UniProt P61073)
UniProt P61073, sequence (P61073 whole entry): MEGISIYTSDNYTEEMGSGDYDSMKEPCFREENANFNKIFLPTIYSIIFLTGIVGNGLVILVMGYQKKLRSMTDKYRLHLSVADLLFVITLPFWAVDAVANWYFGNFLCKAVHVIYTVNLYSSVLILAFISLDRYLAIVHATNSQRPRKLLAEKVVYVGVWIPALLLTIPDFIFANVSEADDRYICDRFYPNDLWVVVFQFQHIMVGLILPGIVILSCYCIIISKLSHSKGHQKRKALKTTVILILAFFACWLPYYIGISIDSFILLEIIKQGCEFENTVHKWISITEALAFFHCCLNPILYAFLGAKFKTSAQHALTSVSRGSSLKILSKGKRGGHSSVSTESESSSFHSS

- cytoplasmic Ca2+ release in MDA-MB-231 cells (Fura-2), dose response to OHD (4–12), EC50: 1.3 nM
Substance: OHD_(4–12) (Obligate HeteroDimer CXCL4–CXCL12) (from UniProt P48061-2 22-89) (complex)
